From patent publication US20060198851A1

How the values were obtained:
[1] = biological target: synthetic Aβ1-42 (aggregated in the ELISAs) (human) (UniProt P05067); assay: ELISA on aggregated synthetic Aβ1-42; given as ED50
[2] = biological target: soluble Aβ1-42, [125I]Aβ1-42 (human) (UniProt P05067); assay: capture radioimmunoassay, 50,000 CPM of 125I-Aβ 1-42 (or 125I-Aβ 1-40)

EC50 [1] [nM] | % of radioactive counts bound at 10 µg/ml [2] [%] | Substance
0.053 | 2 | monoclonal antibody 10D5 (IgG1)
0.667 | 7 | monoclonal antibody 12B4 (IgG2a)
